Assay results as given in patent publication EP4714976A1 (Sunshine Lake Pharma Co., Ltd., dated 2026).

T1: FGFR4 (acro) (UniProt P22455 22-369)
T1 sequence (looked up): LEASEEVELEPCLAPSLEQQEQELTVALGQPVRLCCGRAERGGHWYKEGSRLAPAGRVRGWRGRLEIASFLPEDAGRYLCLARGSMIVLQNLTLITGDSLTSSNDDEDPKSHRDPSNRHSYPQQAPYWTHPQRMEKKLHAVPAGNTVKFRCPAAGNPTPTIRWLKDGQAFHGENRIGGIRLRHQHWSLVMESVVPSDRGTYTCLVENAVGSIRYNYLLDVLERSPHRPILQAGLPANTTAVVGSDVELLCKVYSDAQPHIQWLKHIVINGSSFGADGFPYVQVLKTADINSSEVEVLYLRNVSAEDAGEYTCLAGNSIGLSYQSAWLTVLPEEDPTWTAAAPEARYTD

B1: 3E2 scFv-Fc (Fc fusion)
chain: EIQLQQSGAELVKPGASVKMSCKASGYTFSFYNMHWVKRTPGQGLEWIGLIYPDNGDTSYNQKFKGKATLTADTSSSTAYMQLSSLTSEDSAVYYCARGGLDYWGQGTSLTVSSGGGGSGGGGSGGGGSNIVMTQSQKFMSTSVGDRVSVTCKASQNVGTNVAWYQQKPGQSPKALIYSASYRYTGVPDRFTGSGSGTDFTFTISSVQAEDLAVYYCQQHYSTPYTFGGGTKLEIKESKYGPPCPPCPAPEAAGGPSVFLFPPKPKDTLMISRTPEVTCVVVDVSQEDPEVQFNWYVDGVEVHNAKTKPREEQFNSTYRVVSVLTVLHQDWLNGKEYKCKVSNKGLPSSIEKTISKAKGQPREPQVYTLPPSQEEMTKNQVSLTCLVKGFYPSDIAVEWESNGQPENNYKTTPPVLDSDGSFFLYSKLTVDKSRWQEGNVFSCSVMHEALHNHYTQKSLSLSLG
notes: scFv-Fc dimer
B2: 3E7 scFv-Fc (Fc fusion)
chain: QVQLQQSGAELVKPGASVKMSCKASGYTFTIYNIHWVRQTPGQGLEWIGLIYPDNGDTSYNQKFKAKATLTADKSSSTAYMQLSSLTSEDSAVYYCARGGFDYWGQGTTLTVSSGGGGSGGGGSGGGGSNIVMTQSQKFMSTSVGDRVSVTCKASQNVGTNVAWYQQKPGQSPKALIYSASYRYSGVPDRFTGSGSGTDFTLTISGVQAEDLADYYCQQHYNTPYTFGGGTKLEIKESKYGPPCPPCPAPEAAGGPSVFLFPPKPKDTLMISRTPEVTCVVVDVSQEDPEVQFNWYVDGVEVHNAKTKPREEQFNSTYRVVSVLTVLHQDWLNGKEYKCKVSNKGLPSSIEKTISKAKGQPREPQVYTLPPSQEEMTKNQVSLTCLVKGFYPSDIAVEWESNGQPENNYKTTPPVLDSDGSFFLYSKLTVDKSRWQEGNVFSCSVMHEALHNHYTQKSLSLSLG
notes: scFv-Fc dimer
B3: 3F11 scFv-Fc (Fc fusion)
chain: QVQLQQSGAELVKPGASVKMSCKASGYTFAPYNIHWVRQTPGQGLEWIGLIYPDNGDTSYNQKFKAKATLTADKSSSTAYMQLSSLTSEDSAVYYCARGGFDYWGQGTSLTVSSGGGGSGGGGSGGGGSDIVMTQSQKFMSTSVGDRVSVTCKASQNVGTNVAWYQQKPGQSPKALIYSASYRYSGVPDRFTGSGSGTDFTLTISNVQSEDLAEYFCQQHYSTPFTFGSGTKLEIKESKYGPPCPPCPAPEAAGGPSVFLFPPKPKDTLMISRTPEVTCVVVDVSQEDPEVQFNWYVDGVEVHNAKTKPREEQFNSTYRVVSVLTVLHQDWLNGKEYKCKVSNKGLPSSIEKTISKAKGQPREPQVYTLPPSQEEMTKNQVSLTCLVKGFYPSDIAVEWESNGQPENNYKTTPPVLDSDGSFFLYSKLTVDKSRWQEGNVFSCSVMHEALHNHYTQKSLSLSLG
notes: scFv-Fc dimer
B4: 3C7 scFv-Fc (Fc fusion)
chain: EIQLQQSGAELVKPGASVKMSCKASGYIFRNYYIHWVKRTPGQGLEWIGAIYPDNGDTSYNQRFKVKATLTADTSSSTAYMQLSSLTSEDSAVYYCARAFTYWGQGTTLTVSSGGGGSGGGGSGGGGSDIQMIQSPASLSASVGETVTITCGASENIYGALNWYQRKQGKSPQLLIYGATNLADGMSSRFSGSGSGRQYSLKISSLHPDDVATYYCQNVLSTPYTFGGGTKLEIKESKYGPPCPPCPAPEAAGGPSVFLFPPKPKDTLMISRTPEVTCVVVDVSQEDPEVQFNWYVDGVEVHNAKTKPREEQFNSTYRVVSVLTVLHQDWLNGKEYKCKVSNKGLPSSIEKTISKAKGQPREPQVYTLPPSQEEMTKNQVSLTCLVKGFYPSDIAVEWESNGQPENNYKTTPPVLDSDGSFFLYSKLTVDKSRWQEGNVFSCSVMHEALHNHYTQKSLSLSLG
notes: scFv-Fc dimer
B5: 3E1 scFv-Fc (Fc fusion)
chain: QVQLQQPGAEVVKPGASVKMSCKASGYTFTDYYIHWVKQTPGQGLEWIGAIYPDNGDTSYNQKFKVKATLTADKSSSTAYMQLSSLTSEDSAVYYCARAFTYWGQGTLVTVSAGGGGSGGGGSGGGGSDILITQSPASLSASVGETVTITCGASENIYGALNWYQRKQGKSPQLLIYGATNLADGMSSRFSGSGSGRQYSLKISSLHPDDVATYYCQNVLSTPYTFGGGTKLEIKESKYGPPCPPCPAPEAAGGPSVFLFPPKPKDTLMISRTPEVTCVVVDVSQEDPEVQFNWYVDGVEVHNAKTKPREEQFNSTYRVVSVLTVLHQDWLNGKEYKCKVSNKGLPSSIEKTISKAKGQPREPQVYTLPPSQEEMTKNQVSLTCLVKGFYPSDIAVEWESNGQPENNYKTTPPVLDSDGSFFLYSKLTVDKSRWQEGNVFSCSVMHEALHNHYTQKSLSLSLG
notes: scFv-Fc dimer
B6: 1B8 scFv-Fc (Fc fusion)
chain: QIQLQQSGAELVKPGASVKMSCKASGYTFASYNLHWVKQTPGQGLEWIGLIYPENGDTSYNQKFKGKATLTADTSSTTAYIQLSSLTSEDSAVYFCARGGFDYWGQGTSLTVSSGGGGSGGGGSGGGGSDIKMTQSPASLSASVGETVTITCGASENIYGALNWYQRKQGKSPQLLIYGATNLADGMSSRFSGSGSGRQYSLKISSLHPDDVATYYCQNVLSTPYTFGGGTKLEIKESKYGPPCPPCPAPEAAGGPSVFLFPPKPKDTLMISRTPEVTCVVVDVSQEDPEVQFNWYVDGVEVHNAKTKPREEQFNSTYRVVSVLTVLHQDWLNGKEYKCKVSNKGLPSSIEKTISKAKGQPREPQVYTLPPSQEEMTKNQVSLTCLVKGFYPSDIAVEWESNGQPENNYKTTPPVLDSDGSFFLYSKLTVDKSRWQEGNVFSCSVMHEALHNHYTQKSLSLSLG
notes: scFv-Fc dimer

Target: T2, FGFR2c (acro) (UniProt P21802 22-377)
Assay: ELISA

T2 sequence (P21802 22-377): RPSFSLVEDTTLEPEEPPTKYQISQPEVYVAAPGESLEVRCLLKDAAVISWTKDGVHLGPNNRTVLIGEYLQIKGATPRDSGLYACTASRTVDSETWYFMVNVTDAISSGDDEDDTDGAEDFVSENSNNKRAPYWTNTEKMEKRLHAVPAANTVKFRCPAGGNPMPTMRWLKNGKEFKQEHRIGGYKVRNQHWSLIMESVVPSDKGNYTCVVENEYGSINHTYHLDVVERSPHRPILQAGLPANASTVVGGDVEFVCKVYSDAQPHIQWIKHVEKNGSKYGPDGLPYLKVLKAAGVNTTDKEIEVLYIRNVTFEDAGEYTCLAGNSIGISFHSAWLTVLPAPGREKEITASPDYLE

binding result | Binder
no binding (tested: 10 µg/mL) | B1
no binding (tested: 10 µg/mL) | B2
no binding (tested: 10 µg/mL) | B3
no binding (tested: 10 µg/mL) | B4
no binding (tested: 10 µg/mL) | B5
no binding (tested: 10 µg/mL) | B6

Target: T1, FGFR4 (acro)
Assay: ELISA

binding result | Binder
no binding (tested: 10 µg/mL) | B1
no binding (tested: 10 µg/mL) | B2
no binding (tested: 10 µg/mL) | B3
no binding (tested: 10 µg/mL) | B4
no binding (tested: 10 µg/mL) | B5
no binding (tested: 10 µg/mL) | B6

Target: T1, FGFR4 (acro)
Assay: ELISA, antibody 10 µg/mL

OD (450 nm) value | Binder
0.149 | B1
0.125 | B2
0.093 | B3
0.133 | B4
0.096 | B5
0.171 | B6

Target: T2, FGFR2c (acro)
Assay: ELISA, antibody 10 µg/mL

OD (450 nm) value | Binder
0.138 | B1
0.114 | B2
0.086 | B3
0.091 | B4
0.118 | B5
0.076 | B6

Target: T3, human FGFR2b (Kaixia Biotechnology, catalog number FGR-HM1BB) (human, UniProt P21802-3 22-378)
T3 construct: extracellular domain; bought; also called hFGFR2b; human FGFR2b protein
Assay: BLI, antibody on AHC2 sensor

T3 sequence (P21802 other isoform, or with tags, fused parts or gaps): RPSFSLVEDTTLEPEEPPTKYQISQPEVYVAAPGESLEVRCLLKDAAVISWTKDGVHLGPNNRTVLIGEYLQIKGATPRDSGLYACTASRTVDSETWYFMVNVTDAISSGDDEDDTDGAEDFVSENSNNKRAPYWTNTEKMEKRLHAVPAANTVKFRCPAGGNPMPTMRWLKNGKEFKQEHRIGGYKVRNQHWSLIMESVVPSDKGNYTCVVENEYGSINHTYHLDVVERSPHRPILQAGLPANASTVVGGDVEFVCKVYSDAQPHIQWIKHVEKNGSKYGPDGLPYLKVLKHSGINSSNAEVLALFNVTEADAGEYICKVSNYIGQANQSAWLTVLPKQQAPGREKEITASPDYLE

Kd | koff | kon | Binder
4.45 nM | 0.0011 s⁻¹ | 247000 M⁻¹ s⁻¹ | B1
4.35 nM | 0.00111 s⁻¹ | 256000 M⁻¹ s⁻¹ | B2
6.13 nM | 0.00203 s⁻¹ | 331000 M⁻¹ s⁻¹ | B3
3.99 nM | 0.00114 s⁻¹ | 287000 M⁻¹ s⁻¹ | B4
4.5 nM | 0.00152 s⁻¹ | 337000 M⁻¹ s⁻¹ | B5
13.3 nM | 0.00629 s⁻¹ | 472000 M⁻¹ s⁻¹ | B6

Target: T3, human FGFR2b (Kaixia Biotechnology, …)
Assay: ELISA, FGFR2b coated at 1 µg/ml

EC50 | Binder
0.0235 µg/mL | B1
0.0154 µg/mL | B2
0.0156 µg/mL | B3
0.0166 µg/mL | B4
0.0156 µg/mL | B5
0.0273 µg/mL | B6

Target: T4, FGFR2b on KATO III cells (human, UniProt P21802-3 22-822)
T4 construct: whole, on cells; also called KATO III cells that overexpress FGFR2b
Assay: flow cytometry, KATO III cells

T4 sequence (P21802 other isoform, or with tags, fused parts or gaps): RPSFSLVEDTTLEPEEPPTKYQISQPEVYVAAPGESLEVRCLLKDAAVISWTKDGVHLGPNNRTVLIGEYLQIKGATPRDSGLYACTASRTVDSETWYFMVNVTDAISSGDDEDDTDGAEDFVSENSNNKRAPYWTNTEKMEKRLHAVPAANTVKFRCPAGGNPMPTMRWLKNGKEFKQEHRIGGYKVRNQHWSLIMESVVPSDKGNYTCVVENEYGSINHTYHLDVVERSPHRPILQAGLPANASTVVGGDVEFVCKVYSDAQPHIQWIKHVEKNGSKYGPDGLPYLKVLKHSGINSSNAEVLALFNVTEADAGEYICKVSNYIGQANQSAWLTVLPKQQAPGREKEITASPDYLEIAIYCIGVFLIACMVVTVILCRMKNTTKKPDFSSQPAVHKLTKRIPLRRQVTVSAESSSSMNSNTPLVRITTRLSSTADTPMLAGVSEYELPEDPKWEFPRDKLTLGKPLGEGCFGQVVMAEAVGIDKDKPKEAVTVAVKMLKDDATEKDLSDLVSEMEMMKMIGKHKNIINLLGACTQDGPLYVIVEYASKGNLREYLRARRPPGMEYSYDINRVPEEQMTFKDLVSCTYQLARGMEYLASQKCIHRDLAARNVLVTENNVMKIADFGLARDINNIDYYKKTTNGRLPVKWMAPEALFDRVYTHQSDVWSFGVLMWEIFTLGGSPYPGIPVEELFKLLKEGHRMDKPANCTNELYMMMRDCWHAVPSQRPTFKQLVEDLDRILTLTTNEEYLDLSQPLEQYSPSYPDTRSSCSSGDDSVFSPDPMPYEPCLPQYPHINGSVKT

EC50 | Binder
0.236 µg/mL | B1
0.298 µg/mL | B2
0.164 µg/mL | B3
0.2 µg/mL | B4
0.132 µg/mL | B5
0.133 µg/mL | B6

Target: T5, recombinant cynomolgus monkey FGFR2b (cynomolgus monkey)
T5 construct: extracellular domain; bought; also called cynomolgus macaque FGFR2b
Assay: ELISA, antibody 1ug/mL

OD (450 nm) value | Binder
3.35 | B1
3.15 | B2
3.14 | B3
3.19 | B4
3.34 | B5
3.25 | B6
